T1: cynomolgus LPL (cynomolgus, UniProt A0A7N9D851 28-475)
T1 sequence: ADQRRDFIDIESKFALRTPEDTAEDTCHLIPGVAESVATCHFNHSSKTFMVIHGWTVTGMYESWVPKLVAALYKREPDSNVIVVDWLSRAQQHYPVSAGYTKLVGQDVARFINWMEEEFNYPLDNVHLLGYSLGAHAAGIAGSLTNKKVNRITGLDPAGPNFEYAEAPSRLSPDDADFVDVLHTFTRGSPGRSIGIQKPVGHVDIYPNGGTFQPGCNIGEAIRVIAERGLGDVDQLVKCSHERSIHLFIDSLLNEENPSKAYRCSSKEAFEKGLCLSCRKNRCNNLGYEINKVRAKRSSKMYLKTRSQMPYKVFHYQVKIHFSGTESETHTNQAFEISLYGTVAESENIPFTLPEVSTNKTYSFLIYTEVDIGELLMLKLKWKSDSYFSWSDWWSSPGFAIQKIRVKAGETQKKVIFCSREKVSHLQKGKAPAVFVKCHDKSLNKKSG

T2: LPL (lipoprotein lipase) on LPL-expressing cells of Example 1
T2 sequence (P06858 28-475, species assumed, looked up): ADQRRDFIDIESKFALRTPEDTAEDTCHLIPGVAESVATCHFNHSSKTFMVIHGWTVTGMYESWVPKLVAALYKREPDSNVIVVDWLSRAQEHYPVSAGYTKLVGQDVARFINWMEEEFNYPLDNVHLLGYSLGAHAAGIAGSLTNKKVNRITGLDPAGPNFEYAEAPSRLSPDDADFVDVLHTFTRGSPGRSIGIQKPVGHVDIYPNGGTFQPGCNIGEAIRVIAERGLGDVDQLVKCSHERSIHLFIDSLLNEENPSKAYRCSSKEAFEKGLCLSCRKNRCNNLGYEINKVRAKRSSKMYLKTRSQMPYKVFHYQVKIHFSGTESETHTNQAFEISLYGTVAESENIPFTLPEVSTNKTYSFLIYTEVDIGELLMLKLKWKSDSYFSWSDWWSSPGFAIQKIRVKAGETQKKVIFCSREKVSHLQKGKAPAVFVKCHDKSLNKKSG

T3: human LPL (human, UniProt P06858 28-475)
T3 sequence (looked up): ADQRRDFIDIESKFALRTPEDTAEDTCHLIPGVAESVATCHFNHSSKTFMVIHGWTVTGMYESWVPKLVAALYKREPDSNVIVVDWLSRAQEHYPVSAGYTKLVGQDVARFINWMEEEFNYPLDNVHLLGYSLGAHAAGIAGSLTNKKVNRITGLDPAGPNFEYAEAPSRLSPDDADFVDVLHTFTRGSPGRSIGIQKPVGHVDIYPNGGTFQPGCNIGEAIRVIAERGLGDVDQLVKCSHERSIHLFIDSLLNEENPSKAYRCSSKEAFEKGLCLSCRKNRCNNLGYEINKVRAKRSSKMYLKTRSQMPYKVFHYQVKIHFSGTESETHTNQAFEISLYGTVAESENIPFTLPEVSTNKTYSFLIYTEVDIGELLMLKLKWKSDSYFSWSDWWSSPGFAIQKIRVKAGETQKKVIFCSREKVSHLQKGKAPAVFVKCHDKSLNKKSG

T4: mouse ANGPTL3/8 complex (mouse, UniProt Q9R182 17-455; Q8R1L8 16-198, limits assumed)
T4 sequence (looked up) 1: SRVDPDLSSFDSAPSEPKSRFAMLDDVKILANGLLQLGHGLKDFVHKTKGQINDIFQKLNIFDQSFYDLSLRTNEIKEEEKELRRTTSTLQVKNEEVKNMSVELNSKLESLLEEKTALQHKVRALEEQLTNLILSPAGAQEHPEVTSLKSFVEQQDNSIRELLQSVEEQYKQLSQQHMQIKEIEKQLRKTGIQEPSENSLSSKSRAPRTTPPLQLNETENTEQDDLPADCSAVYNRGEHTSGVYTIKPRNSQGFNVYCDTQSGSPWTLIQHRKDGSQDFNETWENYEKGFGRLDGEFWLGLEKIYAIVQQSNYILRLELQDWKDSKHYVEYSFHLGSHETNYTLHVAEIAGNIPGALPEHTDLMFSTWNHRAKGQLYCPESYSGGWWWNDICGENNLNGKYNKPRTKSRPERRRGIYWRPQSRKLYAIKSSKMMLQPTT
T4 sequence (looked up) 2: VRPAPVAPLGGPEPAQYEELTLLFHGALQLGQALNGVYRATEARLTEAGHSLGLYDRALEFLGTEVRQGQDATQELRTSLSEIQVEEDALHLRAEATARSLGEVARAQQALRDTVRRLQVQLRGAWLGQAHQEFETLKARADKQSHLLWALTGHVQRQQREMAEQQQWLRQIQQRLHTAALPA

T5: human ANGPTL8 (human, UniProt Q6UXH0 22-198)
T5 construct: Biotinylated in the ELISA assays; also called hANGPTL8; free ANGPTL8
T5 sequence: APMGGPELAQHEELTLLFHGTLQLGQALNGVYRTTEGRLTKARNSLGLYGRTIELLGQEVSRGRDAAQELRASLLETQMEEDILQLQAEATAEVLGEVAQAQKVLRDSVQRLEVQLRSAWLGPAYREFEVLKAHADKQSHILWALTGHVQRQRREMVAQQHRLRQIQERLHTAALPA

B1: human ANGPTL3/8 complex (other)
chain 1: SRIDQDNSSFDSLSPEPKSRFAMLDDVKILANGLLQLGHGLKDFVHKTKGQINDIFQKLNIFDQSFYDLSLQTSEIKEEEKELRRTTYKLQVKNEEVKNMSLELNSKLESLLEEKILLQQKVKYLEEQLTNLIQNQPETPEHPEVTSLKTFVEKQDNSIKDLLQTVEDQYKQLNQQHSQIKEIENQLRRTSIQEPTEISLSSKPRAPRTTPFLQLNEIRNVKHDGIPAECTTIYNRGEHTSGMYAIRPSNSQVFHVYCDVISGSPWTLIQHRIDGSQNFNETWENYKYGFGRLDGEFWLGLEKIYSIVKQSNYVLRIELEDWKDNKHYIEYSFYLGNHETNYTLHLVAITGNVPNAIPENKDLVFSTWDHKAKGHFNCPEGYSGGWWWHDECGENNLNGKYNKPRAKSKPERRRGLSWKSQNGRLYSIKSTKMLIHPTDSESFEAAADYKDDDDK
chain 2: APMGGPELAQHEELTLLFHGTLQLGQALNGVYRTTEGRLTKARNSLGLYGRTIELLGQEVSRGRDAAQELRASLLETQMEEDILQLQAEATAEVLGEVAQAQKVLRDSVQRLEVQLRSAWLGPAYREFEVLKAHADKQSHILWALTGHVQRQRREMVAQQHRLRQIQERLHTAALPA
B2: human ANGPTL3 (other)
chain: SRIDQDNSSFDSLSPEPKSRFAMLDDVKILANGLLQLGHGLKDFVHKTKGQINDIFQKLNIFDQSFYDLSLQTSEIKEEEKELRRTTYKLQVKNEEVKNMSLELNSKLESLLEEKILLQQKVKYLEEQLTNLIQNQPETPEHPEVTSLKTFVEKQDNSIKDLLQTVEDQYKQLNQQHSQIKEIENQLRRTSIQEPTEISLSSKPRAPRTTPFLQLNEIRNVKHDGIPAECTTIYNRGEHTSGMYAIRPSNSQVFHVYCDVISGSPWTLIQHRIDGSQNFNETWENYKYGFGRLDGEFWLGLEKIYSIVKQSNYVLRIELEDWKDNKHYIEYSFYLGNHETNYTLHLVAITGNVPNAIPENKDLVFSTWDHKAKGHFNCPEGYSGGWWWHDECGENNLNGKYNKPRAKSKPERRRGLSWKSQNGRLYSIKSTKMLIHPTDSESFE

Assays:
cynomolgus LPL = target: T1, cynomolgus LPL; experiment: cell-based or functional assay
[1] = target: T2, LPL (lipoprotein lipase) on …; experiment: cell-based or functional assay
human LPL = target: T3, human LPL; experiment: cell-based or functional assay
human ANGPTL3/8 complex [2] = target: B1; experiment: cell-based or functional assay
mouse ANGPTL3/8 complex = target: T4, mouse ANGPTL3/8 complex; experiment: cell-based or functional assay
human ANGPTL3/8 complex [3] = target: B1; experiment: single point ELISA; IgG captured by anti-human Fc; biotinylated antigen at 25 nM
Protocol: (§1) Single Point ELISA (SPE) Assay: Ab binding selectivity to either the ANGPTL3/8 complex, free ANGPTL3 or free ANGPTL8 is initially verified using standard ELISA assays in a single point format. […] IgG secreted into supernatants after expression in CHO cells are then captured to the assay plate. Biotinylated antigen is added at a concentration of 25 nM to allow for Ab/antigen binding. Ab/antigen complexes are detected after adding alkaline phosphatase-conjugated neutravidin and alkaline phosphatase substrate, and subsequent measurement of the optical density at 560 nm. Positive binding is determined by a signal greater than 3 fold over the non-binding background signal.

human ANGPTL3 [4] = target: B2; experiment: as above
Protocol: as §1

human ANGPTL8 [5] = target: T5, human ANGPTL8; experiment: as above
Protocol: as §1

human ANGPTL3 [6] = target: B2; experiment: single point ELISA
Protocol: as §1

human ANGPTL8 [7] = target: T5, human ANGPTL8; experiment: single point ELISA
Protocol: as §1

Row | Binder | EC50 in the LPL assay (inhibition of LPL) [1] [nM] | OD at 560 nm (human ANGPTL3/8 complex [3]) [OD 560 nm] | OD at 560 nm (human ANGPTL3 [4]) [OD 560 nm] | OD at 560 nm (human ANGPTL8 [5]) [OD 560 nm] | binding result (human ANGPTL3 [6]) | binding result (human ANGPTL8 [7]) | also measured
1 | cynomolgus ANGPTL3/8 complex (other) chain 1: SRIDQDNSSFDSVSPEPKSRFAMLDDVKILANGLLQLGHGLKDFVHKTKGQINDIFQKLNIFDQSFYDLSLQTSEIKEEEKELRRTTYKLQVKNEEVKNMSLELNSKLESLLEEKILLQQKVKYLEEQLTNLIQNQPATPEHPEVTSLKSFVEKQDNSIKDLLQTVEEQYKQLNQQHSQIKEIENQLRMTNIQEPTEISLSSKPRAPRTTPFLQLNEIRNVKHDGIPADCTTIYNRGEHISGTYAIRPSNSQVFHVYCDVVSGSPWTLIQHRIDGSQNFNETWENYKYGFGRLDGEFWLGLEKIYSIVKQSNYVLRIELEDWKDNKHYIEYSFYLGNHETNYTLHVVKITGNVPNAIPENKDLVFSTWDHKAKGHFSCPESYSGGWWWHDECGENNLNGKYNKPRTKSKPERRRGLSWKSQNGRLYSIKSTKMLIHPTDSESFE chain 2: APVSSPELAEHEELTLLFHGTLQLGQALNGVYKTTEGRLTKARNSLGLYGRTVELLGQEVSRGRDAAQELRASLLETQMEEDILQLKAEAIAEVLEEVAQAQKVLQDSVRQLEVQLRSAWLGPAYQEFEVLKAHADKQSHILWALTGHVQRQRREMVAQQHRLRQIQERIHKAALPA | – | – | – | – | – | – | IC80 concentration (inhibition of LPL activity) (cynomolgus LPL): 0.38 nM
2 | B1 | 0.54 | – | – | – | – | – | IC80 concentration (inhibition of LPL activity) (human LPL): 0.42 nM
3 | Ab with LC variant having a D33T mutation (SEQ ID NO:23) and a HC of SEQ ID NO:6 (antibody, human IgG4 S228P, kappa, F234A L235A, V domains shown, also called D33T Ab) VH: QVTLKESGPTLVKPTQTLTLTCTFSGFSLSISGVGVGWIRQPPGKALEWLALIYRNDDKRYSPSLKSRLTITKDTSKNQVVLTLTNMDPVDTATYYCARTYSSGWYGNWFDPWGQGTLVTVSS VL: DIVMTQTPLSLPVTPGEPASISCRSSQSLLDSTDGNTYLDWYLQKPGQSPQLLIYMLSYRASGVPDRFSGSGSGTDFTLKISRVEAEDVGIYYCMQRIEFPLTFGGGTKVEIKR | – | 0.661 | 0.06 | 0.07 | no binding | no binding | % Max Derepression LPL (human ANGPTL3/8 complex [2]): 105%; Ab EC50 (nM), derepression of LPL (human ANGPTL3/8 complex [2]): 1.56 nM; % Max Derepression LPL (mouse ANGPTL3/8 complex): 114%; Ab EC50 (nM), derepression of LPL (mouse ANGPTL3/8 complex): 4.55 nM
4 | Ab with LC variant having a M56T mutation (SEQ ID NO:24) and a HC of SEQ ID NO:6 (antibody, human IgG4 S228P, kappa, F234A L235A, V domains shown) VH: QVTLKESGPTLVKPTQTLTLTCTFSGFSLSISGVGVGWIRQPPGKALEWLALIYRNDDKRYSPSLKSRLTITKDTSKNQVVLTLTNMDPVDTATYYCARTYSSGWYGNWFDPWGQGTLVTVSS VL: DIVMTQTPLSLPVTPGEPASISCRSSQSLLDSDDGNTYLDWYLQKPGQSPQLLIYTLSYRASGVPDRFSGSGSGTDFTLKISRVEAEDVGIYYCMQRIEFPLTFGGGTKVEIKR | – | 0.775 | 0.06 | 0.085 | no binding | no binding | –
5 | B2 | 21.5 | – | – | – | – | – | –

— patent US20200199213A1 (Eli Lilly, published 2020)
